Laboratory results as given in publication PMC7957537 (2021).

Experiments:
recombinant human VEGFR2 [1] = target: T1, recombinant human VEGFR2 (human, UniProt P35968 20-764); assay: SPR
T1 chain: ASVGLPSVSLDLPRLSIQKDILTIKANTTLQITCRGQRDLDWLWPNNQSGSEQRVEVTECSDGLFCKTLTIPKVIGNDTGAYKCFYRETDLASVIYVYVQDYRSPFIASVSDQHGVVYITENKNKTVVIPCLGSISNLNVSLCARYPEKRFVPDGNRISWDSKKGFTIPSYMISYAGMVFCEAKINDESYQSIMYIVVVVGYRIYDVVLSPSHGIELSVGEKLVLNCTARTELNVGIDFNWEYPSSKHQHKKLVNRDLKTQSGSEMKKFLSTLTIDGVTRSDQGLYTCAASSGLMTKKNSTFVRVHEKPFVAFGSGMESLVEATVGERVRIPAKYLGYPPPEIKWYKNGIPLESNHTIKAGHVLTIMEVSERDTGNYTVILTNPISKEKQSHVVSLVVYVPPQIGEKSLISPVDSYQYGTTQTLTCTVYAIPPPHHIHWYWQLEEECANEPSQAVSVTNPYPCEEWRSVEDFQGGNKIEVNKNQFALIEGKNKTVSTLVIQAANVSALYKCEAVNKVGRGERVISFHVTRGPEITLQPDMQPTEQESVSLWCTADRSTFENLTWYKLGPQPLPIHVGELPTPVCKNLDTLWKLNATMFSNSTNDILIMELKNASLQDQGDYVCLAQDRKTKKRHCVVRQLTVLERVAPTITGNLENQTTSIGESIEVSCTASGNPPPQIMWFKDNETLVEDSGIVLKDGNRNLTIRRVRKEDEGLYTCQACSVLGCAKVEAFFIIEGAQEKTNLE

recombinant human VEGFR2 [2] = target: T1, recombinant human VEGFR2; assay: SPR

- koff (recombinant human VEGFR2 [1]): 0.000102 s⁻¹
- Kd (recombinant human VEGFR2 [2]): 0.949 nM
B1: ramucirumab (Cyramza) (antibody, V domains shown)
VH: EVQLVQSGGGLVKPGGSLRLSCAASGFTFSSYSMNWVRQAPGKGLEWVSSISSSSSYIYYADSVKGRFTISRDNAKNSLYLQMNSLRAEDTAVYYCARVTDAFDIWGQGTMVTVSS
VL: DIQMTQSPSSVSASIGDRVTITCRASQGIDNWLGWYQQKPGKAPKLLIYDASNLDTGVPSRFSGSGSGTYFTLTISSLQAEDFAVYFCQQAKAFPPTFGGGTKVDIK
